Key:
P. putida strain FJPO3 = assay: Growth and mcl-PHA production of strain FJPO3 on levoglucosan; type: cell-based, Pseudomonas putida
Excerpt: The levoglucosan kinase (lgk) gene from Lipomyces starkeyi was codon optimized using Gene Designer software from DNA 2.0 and synthesized as a gBlock (SEQ ID NO:1). This fragment was cloned into plasmid pMFL76, which is derived from the commercial PCR-Blunt II Topo vector (ThermoFisher), with the addition of two 1-kb genomic regions located in proximity of the rpoS region of the genome from Pseudomonas putida KT2440 to enable homologous recombination mediated genomic integration into strain KT2440. The Ptac-lgk was inserted in between these 1 kb homology regions and transformed into KT2440. A single kanamycin-resistant transformant was isolated and growth in M9 levoglucosan was confirmed, to generate strain FJPO3.
P. putida produces medium chain-length polyhydroxy-alkanoates (mcl-PHAs), which are high-value polymers that can serve as plastics, adhesive precursors, and as precursors to chemical building blocks or hydrocarbons. As mcl-PHAs represent a potential target to generate from pyrolytic sugars, the generation of mcl-PHAs by P. putida using levoglucosan as its sole carbon source as investigated.
Most growths were in a modified formulation of M9 minimal salts. Briefly, 6.78 g Na2PO4 (anhydrous), 3 g KH2PO4, and 0.5 g NaCl were dissolved in 750 mL deionized H2O. The pH was adjusted to 7.4 with 10 N NaOH and brought to 900 mL with H2O. The solution was autoclaved for 15 minutes at 121° C. and allowed to cool. […]
Growth curves were generated using a Bioscreen C automated microbiology growth curve analysis system from Growth Curves USA. […] Spectrophotometric blanks were subtracted from the measured values and each growth curve represents the average of three independent cultures. The maximum specific growth rate (μmax) was calculated as the maximum slope of the log phase of the growth curve over any given 4 hour period during the course of the experiment. […]
One mL of saturated cultures was centrifuged at 5,000×g for 5 minutes. […] Nile Red fluorescence was detected between 560 and 590 nm using band-pass filtering.

[1] = β-Glucosidase mediated cleavage of cellobiosan (HPLC); type: biochemical; conditions: cellobiosan 2 mg/mL, 2.5 to 20 μg of enzyme (four enzyme loadings), 40° C., 90 minutes, FIG. 5
Procedure: (§1) Following the β-glucosidase reaction period, the tubes were placed on ice, filtered through a 0.2 μm filter and analyzed via High-Performance Liquid Chromatography (HPLC; Agilent 1100 series system (Agilent USA, Santa Clara, Calif.)) using a Shodex SP0810 carbohydrate column with de-ashing guard cartridges (BioRad Laboratories, Hercules, Calif.) run at 85° C. with ultra-pure water as the isocratic mobile phase at a flow rate of 0.6 mL/min. A refractive index detector was used for compound detection. By-products were identified by co-elution at the same retention time with pure compounds. Standard curves for substrate (cellobiosan) and products (glucose and levoglucosan) were also generated in order to quantify results. Additionally, enzymes were analyzed via HPLC in buffer alone (without cellobiosan) to ensure no carry-over products inherent to the enzyme preparations.
Each reaction was set up in 1.5 mL microcentrifuge tubes using cellobiosan at a concentration of 2 mg/mL in the following buffers: 50 mM sodium maleate, pH 6.5 (T. maritima and Agrobacterium sp.), and 100 mM sodium acetate, pH 5.0 (P. chrysosporium and A. niger). For each reaction, 2.5 to 20 μg of enzyme was loaded and the total reaction volume was 400 μL. An additional enzyme-free reaction was run simultaneously to ensure cellobiosan cleavage was enzyme-dependent. Reactions were incubated at 40° C. using a dry-block for 90 minutes. In a separate reaction evaluating the substrate concentration, 0.125 μM of purified A. niger β-glucosidase was incubated at 40° C. in a 96-well microtiter plate with 0, 0.5, 1, 2, 4, 8, 16 or 32 mM cellobiose or cellobiosan. Reactions were initiated by the addition of enzyme and quenched by boiling in a thin walled PCR tube at 0.5, 1, 5 and 10 minutes.
as §1, with “the” for “the β-glucosidase”, “periods,” for “period,”, “Agilent1100” for “Agilent 1100”, “ml min^−1.” for “mL/min.”, “(without the addition of” for “(without”

[2] = system: P. putida strains FJPO3 and KT2440; assay: Growth of P. putida strains on cellobiose or cellobiosan with addition of abg β-glucosidase; type: cell-based, Pseudomonas putida
Procedure: Most growths were in a modified formulation of M9 minimal salts. Briefly, 6.78 g Na2PO4 (anhydrous), 3 g KH2PO4, and 0.5 g NaCl were dissolved in 750 mL deionized H2O. The pH was adjusted to 7.4 with 10 N NaOH and brought to 900 mL with H2O. The solution was autoclaved for 15 minutes at 121° C. and allowed to cool. One hundred μL of 1 M CaCl2 (100 μM final) and 2 mL of 1 M MgSO4-7H2O (2 mM Final), 1 mL of 100 mM FeSO4, (100 μM final) and 10 mL 1 M (NH4)2SO4 (10 mM final) was added. In the case of FIG. 2, 1 mM (NH4)2SO4, was used to induce mcl-PHA production.
Growth curves were generated using a Bioscreen C automated microbiology growth curve analysis system from Growth Curves USA. Overnight cultures were diluted to 0.02 OD in a total volume of 300 μL per well. Incubations were performed at 30° C. with continuous shaking and turbidity measurements (OD420-580) were collected every 15 minutes for the duration of the experiments. Spectrophotometric blanks were subtracted from the measured values and each growth curve represents the average of three independent cultures. The maximum specific growth rate (μmax) was calculated as the maximum slope of the log phase of the growth curve over any given 4 hour period during the course of the experiment. […]

In the case of `O[C@@H]1[C@@H](O)[C@@H]2OC[C@@H](O2)[C@H]1O` [levoglucosan], the “growth profile of FJPO3 compared with glucose” value (P. putida strain FJPO3; M9 medium, 7.5 g/L levoglucosan vs 7.5 g/L glucose, FIG. 2 Panel A) is reported as “similar”, the “concentration at which FJPO3 has the capacity to grow” value (P. putida strain FJPO3; M9 medium, FIG. 2 Panel B) is reported as no more than 60 g/L and the “mcl-PHA production by FJPO3 (Nile Red fluorescence)” value (P. putida strain FJPO3; N-limited medium [M9 1mM (NH4)2SO4], levoglucosan as sole carbon source, FIG. 2 Panel C) is reported as “produces mcl-PHAs”.

With “bgl1A: P. chrysosporium β-glucosidase, GH3, GenBank AAC26489, SEQ ID NO: 4” the “cleavage of cellobiosan to generate glucose and levoglucosan” value (shortened to “cleavage of cellobiosan”) [1] was “able to cleave cellobiosan”.

B1: abg: Agrobacterium sp. β-glucosidase, GH1, GenBank AAA22085.1, SEQ ID NO: 6 (protein, listed as Agrobacterium sp.)
chain: MTDPNTLAARFPGDFLFGVATASFQIEGSTKADGRKPSIWDAFCNMPGHVFGRHNGDIACDHYNRWEEDLDLIKEMGVEAYRFSLAWPRIIPDGFGPINEKGLDFYDRLVDGCKARGIKTYATLYHWDLPLTLMGDGGWASRSTAHAFQRYAKTVMARLGDRLDAVATFNEPWCAVWLSHLYGVHAPGERNMEAALAAMHHINLAHGFGVEASRHVAPKVPVGLVLNAHSAIPASDGEADLKAAERAFQFHNGAFFDPVFKGEYPAEMMEALGDRMPVVEAEDLGIISQKLDWWGLNYYTPMRVADDATPGVEFPATMPAPAVSDVKTDIGWEVYAPALHTLVETLYERYDLPECYITENGACYNMGVENGQVNDQPRLDYYAEHLGIVADLIRDGYPMRGYFAWSLMDNFEWAEGYRMRFGLVHVDYQTQVRTVKNSGKWYSALASGFPKGNHGVAKG
With B1 the “cleavage of cellobiosan” value [1] was “able to cleave cellobiosan”, the “growth of FJPO3 and KT2440 in M9 medium containing cellobiosan plus abg” value ([2]; cellobiosan, twenty micrograms of enzyme, 30° C., FIG. 6) was “both FJPO3 and KT2440 are capable of utilizing the glucose component of cellobiosan” and the “growth profiles of KT2440 and FJPO3 in M9 medium containing cellobiose with addition of abg” value ([2]; cellobiose, FIG. 6 Panel A) was “virtually indistinguishable”.

B2: bglA: T. maritima β-glucosidase, GH1, GenBank CAA52276.1, SEQ ID NO: 5 (protein, listed as Thermotoga maritima)
chain: MNVKKFPEGFLWGVATASYQIEGSPLADGAGMSIWHTFSHTPGNVKNGDTGDVACDHYNRWKEDIEIIEKLGVKAYRFSISWPRILPEGTGRVNQKGLDFYNRIIDTLLEKGITPFVTIYHWDLPFALQLKGGWANREIADWFAEYSRVLFENFGDRVKNWITLNEPWVVAIVGHLYGVHAPGMRDIYVAFRAVHNLLRAHARAVKVFRETVKDGKIGIVFNNGYFEPASEKEEDIRAVRFMHQFNNYPLFLNPIYRGDYPELVLEFAREYLPENYKDDMSEIQEKIDFVGLNYYSGHLVKFDPDAPAKVSFVERDLPKTAMGWEIVPEGIYWILKKVKEEYNPPEVYITENGAAFDDVVSEDGRVHDQNRIDYLKAHIGQAWKAIQEGVPLKGYFVWSLLDNFEWAEGYSKRFGIVYVDYSTQKRIVKDSGYWYSNVVKNNGLED
In the case of B2, the “cleavage of cellobiosan” value [1] is reported as “able to cleave cellobiosan”.

B3: bgl1: A. niger β-glucosidase, GH3, GenBank AJ132386, SEQ ID NO: 3 (protein)
chain: MRFTLIEAVALTAVSLASADELAYSPPYYPSPWANGQGDWAQAYQRAVDIVSQMTLDEKVNLTTGTGWELELCVGQTGGVPRLGVPGMCLQDSPLGVRDSDYNSAFPAGMNVAATWDKNLAYLRGKAMGQEFSDKGADIQLGPAAGPLGRSPDGGRNWEGFSPDPALSGVLFAETIKGIQDAGVVATAKHYIAYEQEHFRQAPEAQGFGFNISESGSANLDDKTMHELYLWPFADAIRAGAGAVMCSYNQINNSYGCQNSYTLNKLLKAELGFQGFVMSDWAAHHAGVSGALAGLDMSMPGDVDYDSGTSYWGTNLTISVLNGTVPQWRVDDMAVRIMAAYYKVGRDRLWTPPNFSSWTRDEYGYKYYYVSEGPYEKVNQYVNVQRNHSELIRRIGADSTVLLKNDGALPLTGKERLVALIGEDAGSNPYGANGCSDRGCDNGTLAMGWGSGTANFPYLVTPEQAISNEVLKHKNGVFTATDNWAIDQIEALAKTASVSLVFVNADSGEGYINVDGNLGDRRNLTLWRNGDNVIKAAASNCNNTIVVIHSVGPVLVNEWYDNPNVTAILWGGLPGQESGNSLADVLYGRVNPGAKSPFTWGKTREAYQDYLVTEPNNGNGAPQEDFVEGVFIDYRGFDKRNETPIYEFGYGLSYTTFNYSNLEVQVLSAPAYEPASGETEAAPTFGEVGNASDYLYPSGLQRITKFIYPWLNGTDLEASSGDASYGQDSSDYLPEGATDGSAQPILPAGGGPGGNPRLYDELIRVSVTIKNTGKVAGDEVPQLYVSLGGPNEPKIVLRQFERITLQPSEETKWSTTLTRRDLANWNVEKQDWEITSYPKMVFVGSSSRKLPLRASLPTVH
modifications: Aspergillus niger
With B3 the “cleavage of cellobiosan” value [1] was “able to cleave cellobiosan”.

— US20170327854A1, “METHODS FOR CELLOBIOSAN UTILIZATION” (Alliance for Sustainable Energy, LLC, priority 2015, published 2017)
